Tests used:
rhTSLP-hFc [1] = target: rhTSLP-hFc (human); assay: cell-based or functional assay
rhTSLP-mFc融合蛋白 = target: T1, rhTSLP-mFc融合蛋白 (human); assay: ELISA: rhTSLP-mFc coated, goat anti-human IgG-HRP detection
T1 construct: Expressed in 293F cells and purified on protein A; also called 人重组TSLP蛋白

人TSLP = target: T2, 人TSLP (human, UniProt Q969D9 29-159); assay: BLI (ForteBio Blitz)
T2 construct: also called hTSLP; 人胸腺基质淋巴细胞生成素

rhTSLP-hFc [2] = target: rhTSLP-hFc (human); assay: competition ELISA: rhTSLP-hFc coated, antibody titrated against 2 μg/ml rhTSLPR-His, anti-His-HRP detection

B1: 人源化单克隆抗体1K3/1H2 (antibody, human IgG1, kappa, V domains shown)
VH: EVKLVESGGGLVQPGGSLKLSCAASGFTFSSFGMNWVRQAPGKGLEWVAYISSGSSIIYYADSVKGRFTISRDNPKNSLYLQMNSLRDEDTAVYYCAREPYGYDVYYFDYWGQGTTVTVSS
VL: DIVMTQSPASLAVSPGQRATISCKASQSIDYDGDSYMNWYQQKPGQPPKLLIYAASNLDTGIPARFSGSGSGTDFTLTISSVEEEDTATYYCQQSNEDPYTFGGGTKVEIKR
IC50, 抑制TSLP刺激的293F转染细胞STAT5-荧光素酶活性 (rhTSLP-hFc [1]): 3.22 µg/mL

B2: 人源化单克隆抗体6K1/3H2 (antibody, human IgG1, kappa, V domains shown)
VH: QVQLVQSGAELKKPGASVKISCKASGFNIKDYYMHWVRQRPEQGLEWIGWIDPENGNTIYAQKFQGRATITADTSTDTAYMELSSLTSEDTAVYYCAREGDGNYLWFAYWGQGTLVTVSS
VL: DIQMTQSPSSLSASVGGKVTITCKASQDINKYIAWYQQKPGKGPKLLIHYTSTLEPGVPSRFSGSGSGRDFTFSISSLQPEDIATYYCLHYDNLLTFGGGTKVEIKR
notes: Humanized from 6K/3H; expressed in 293F cells
binding result (rhTSLP-mFc融合蛋白): binds

B3: 人源化单克隆抗体6K1/3H1 (antibody, human IgG1, kappa, V domains shown)
VH: QVKLVQSGAELVKPGASVKLSCKASGFNIKDYYMHWVRQRPGQGLEWIGWIDPENGNTMYAPKFQGRASITADTSTNTAYMQLSSLRSEDTAVYYCAREGDGNYLWFAYWGQGTLVTVSS
VL: DIQMTQSPSSLSASVGGKVTITCKASQDINKYIAWYQQKPGKGPKLLIHYTSTLEPGVPSRFSGSGSGRDFTFSISSLQPEDIATYYCLHYDNLLTFGGGTKVEIKR
notes: as for B2
binding result (rhTSLP-mFc融合蛋白): binds

B4: 人源化单克隆抗体6K1/3H3 (antibody, human IgG1, kappa, V domains shown)
VH: EVQLVESGAEVVKPGALVKVSCKASGFNIKDYYMHWVRQRPGQGLEWIGWIDPENGNTIYDQKFQGRVSITADTSTNTAYLELSSLTSEDTAVYYCAREGDGNYLWFAYWGQGTLVTVSS
VL: DIQMTQSPSSLSASVGGKVTITCKASQDINKYIAWYQQKPGKGPKLLIHYTSTLEPGVPSRFSGSGSGRDFTFSISSLQPEDIATYYCLHYDNLLTFGGGTKVEIKR
notes: as for B2
binding result (rhTSLP-mFc融合蛋白): binds

B5: 人源化单克隆抗体6K2/3H2 (antibody, human IgG1, kappa, V domains shown)
VH: QVQLVQSGAELKKPGASVKISCKASGFNIKDYYMHWVRQRPEQGLEWIGWIDPENGNTIYAQKFQGRATITADTSTDTAYMELSSLTSEDTAVYYCAREGDGNYLWFAYWGQGTLVTVSS
VL: DIQLTQSPSSLSASVGDKVIITCKASQDINKYIAWYQQKPGKALKLLIHYTSTLETGVPSRFSGSGSGTDYTFSISNLQPEDIATYYCLHYDNLLTFGGGTKVELKR
notes: as for B2
binding result (rhTSLP-mFc融合蛋白): binds

B6: 人源化单克隆抗体6K3/3H2 (antibody, human IgG1, kappa, V domains shown)
VH: QVQLVQSGAELKKPGASVKISCKASGFNIKDYYMHWVRQRPEQGLEWIGWIDPENGNTIYAQKFQGRATITADTSTDTAYMELSSLTSEDTAVYYCAREGDGNYLWFAYWGQGTLVTVSS
VL: DIQMTQSPSSLSASLGDKVTITCKASQDINKYIAWYQHKPGKAPKLLIHYTSTLEPGVPSRFSGSGSGTDFTFSISSLEPEDIATYYCLHYDNLLTFGGGTKLEIKR
notes: as for B2
binding result (rhTSLP-mFc融合蛋白): binds
IC50, 抑制TSLP刺激的293F转染细胞STAT5-荧光素酶活性 (rhTSLP-hFc [1]): 0.182 µg/mL

B7: 鼠源TSLP单克隆抗体3A1H2B2E1(1K/1H) (antibody, mouse IgG1, kappa)
heavy: EVKLVESGGGLVQPGGSRKLSCAASGFTFSSFGMHWVRQAPEKGLEWVAYISSGSSIIHYADTVKGRFTISRDNPKNTLFLQMTSLRSEDTAMYYCAREPYGYDVYYFDYWGQGTTITVSSAKTTPPSVYPLAPGSAAQTNSMVTLGCLVKGYFPEPVTVTWNSGSLSSGVHTFPAVLESDLYTLSSSVTVPSSPRPSETVTCNVAHPASSTKVDKKIVPRDCGCKPCICTVPEVSSVFIFPPKPKDVLTITLTPKVTCVVVDISKDDPEVQFSWFVDDVEVHTAQTQPREEQFNSTFRSVSELPIMHQDWLNGKEFKCRVNSAAFPAPIEKTISKTKGRPKAPQVYTIPPPKEQMAKDKVSLTCMITDFFPEDITVEWQWNGQPAENYKNTQPIMNTNGSYFVYSKLNVQKSNWEAGNTFTCSVLHEGLHNHHTEKSLSHSPGK
light: DIVMTQSPASLAVSLGQRATISCKASQSIDYDGDSYMNWYQQKPGQPPKLLIYAASNLDSGIPARFSGSGSGTDFTLNIHPVEEEDAATYYCQQSNEDPYTFGGGTKLEIKRADAAPTVSIFPPSSEQLTSGGASVVCFLNNFYPKDINVKWKIDGSERQNGVLNSWTDQDSKDSTYSMSSTLTLTKDEYERHNSYTCEATHKTSTSPIVKSFNRNEC
notes: also called 鼠源单克隆抗体1K/1H
Kd (人TSLP): 1.75 nM
koff (人TSLP): 0.000732 s⁻¹
kon (人TSLP): 418000 M⁻¹ s⁻¹
IC50 (rhTSLP-hFc [2]): 0.324 µg/mL

B8: 人源化单克隆抗体1K1/1H1 (antibody, human IgG1, kappa, V domains shown)
VH: EVQLVESGGGLVQPGGSRRLSCAASGFTFSSFGMNWVRQAPEKGLEWVAYISSGSSIIYYADSVKGRFTISRDNAKNSLYLQMTSLRAEDTAVYYCAREPYGYDVYYFDYWGQGTLVTVSS
VL: DIVMTQSPASLAVSLGQRATITCKASQSIDYDGDSYMNWYQQKPGQPPKLLIYAASNLDSGVPARFSGSGSGTDFTLTIHPVEPEDFATYYCQQSNEDPYTFGGGTKVEIKR
notes: Humanized from 1K/1H; expressed in 293F cells
binding result (rhTSLP-mFc融合蛋白): binds

B9: 人源化单克隆抗体1K1/1H3 (antibody, human IgG1, kappa, V domains shown)
VH: EVQLVESGGGLVQPGGSLRLSCAASGFTFSSFGMHWVRQAPGKGLEWVSYISSGSSIIYYADTVKGRFTISRDNAKNSLFLQMNSLRSEDTAVYYCAREPYGYDVYYFDYWGQGTLVTVSS
VL: DIVMTQSPASLAVSLGQRATITCKASQSIDYDGDSYMNWYQQKPGQPPKLLIYAASNLDSGVPARFSGSGSGTDFTLTIHPVEPEDFATYYCQQSNEDPYTFGGGTKVEIKR
notes: as for B8
binding result (rhTSLP-mFc融合蛋白): binds

B10: 人源化单克隆抗体1K2/1H1 (antibody, human IgG1, kappa, V domains shown)
VH: EVQLVESGGGLVQPGGSRRLSCAASGFTFSSFGMNWVRQAPEKGLEWVAYISSGSSIIYYADSVKGRFTISRDNAKNSLYLQMTSLRAEDTAVYYCAREPYGYDVYYFDYWGQGTLVTVSS
VL: DIVLTQSPASLAVSLGQRATITCKASQSIDYDGDSYLNWYQQKPGQPPKLLIYAASNKDSGVPARFSGSGSGTDFTLTINPVEAEDFAVYYCQQSNEDPYTFGGGTKVEIKR
notes: as for B8
binding result (rhTSLP-mFc融合蛋白): binds

B11: 人源化单克隆抗体1K3/1H1 (antibody, human IgG1, kappa, V domains shown)
VH: EVQLVESGGGLVQPGGSRRLSCAASGFTFSSFGMNWVRQAPEKGLEWVAYISSGSSIIYYADSVKGRFTISRDNAKNSLYLQMTSLRAEDTAVYYCAREPYGYDVYYFDYWGQGTLVTVSS
VL: DIVMTQSPASLAVSPGQRATISCKASQSIDYDGDSYMNWYQQKPGQPPKLLIYAASNLDTGIPARFSGSGSGTDFTLTISSVEEEDTATYYCQQSNEDPYTFGGGTKVEIKR
notes: as for B8
binding result (rhTSLP-mFc融合蛋白): binds

B12: 人源化单克隆抗体1K2/1H3 (antibody, human IgG1, kappa, V domains shown)
VH: EVQLVESGGGLVQPGGSLRLSCAASGFTFSSFGMHWVRQAPGKGLEWVSYISSGSSIIYYADTVKGRFTISRDNAKNSLFLQMNSLRSEDTAVYYCAREPYGYDVYYFDYWGQGTLVTVSS
VL: DIVLTQSPASLAVSLGQRATITCKASQSIDYDGDSYLNWYQQKPGQPPKLLIYAASNKDSGVPARFSGSGSGTDFTLTINPVEAEDFAVYYCQQSNEDPYTFGGGTKVEIKR
notes: as for B8
binding result (rhTSLP-mFc融合蛋白): binds

B13: 人源化单克隆抗体1K3/1H3 (antibody, human IgG1, kappa, V domains shown)
VH: EVQLVESGGGLVQPGGSLRLSCAASGFTFSSFGMHWVRQAPGKGLEWVSYISSGSSIIYYADTVKGRFTISRDNAKNSLFLQMNSLRSEDTAVYYCAREPYGYDVYYFDYWGQGTLVTVSS
VL: DIVMTQSPASLAVSPGQRATISCKASQSIDYDGDSYMNWYQQKPGQPPKLLIYAASNLDTGIPARFSGSGSGTDFTLTISSVEEEDTATYYCQQSNEDPYTFGGGTKVEIKR
notes: as for B8
binding result (rhTSLP-mFc融合蛋白): binds

B14: 人源化单克隆抗体6K2/3H1 (antibody, human IgG1, kappa, V domains shown)
VH: QVKLVQSGAELVKPGASVKLSCKASGFNIKDYYMHWVRQRPGQGLEWIGWIDPENGNTMYAPKFQGRASITADTSTNTAYMQLSSLRSEDTAVYYCAREGDGNYLWFAYWGQGTLVTVSS
VL: DIQLTQSPSSLSASVGDKVIITCKASQDINKYIAWYQQKPGKALKLLIHYTSTLETGVPSRFSGSGSGTDYTFSISNLQPEDIATYYCLHYDNLLTFGGGTKVELKR
notes: as for B2
binding result (rhTSLP-mFc融合蛋白): binds

B15: 人源化单克隆抗体6K2/3H3 (antibody, human IgG1, kappa, V domains shown)
VH: EVQLVESGAEVVKPGALVKVSCKASGFNIKDYYMHWVRQRPGQGLEWIGWIDPENGNTIYDQKFQGRVSITADTSTNTAYLELSSLTSEDTAVYYCAREGDGNYLWFAYWGQGTLVTVSS
VL: DIQLTQSPSSLSASVGDKVIITCKASQDINKYIAWYQQKPGKALKLLIHYTSTLETGVPSRFSGSGSGTDYTFSISNLQPEDIATYYCLHYDNLLTFGGGTKVELKR
notes: as for B2
binding result (rhTSLP-mFc融合蛋白): binds

B16: 人源化单克隆抗体6K3/3H1 (antibody, human IgG1, kappa, V domains shown)
VH: QVKLVQSGAELVKPGASVKLSCKASGFNIKDYYMHWVRQRPGQGLEWIGWIDPENGNTMYAPKFQGRASITADTSTNTAYMQLSSLRSEDTAVYYCAREGDGNYLWFAYWGQGTLVTVSS
VL: DIQMTQSPSSLSASLGDKVTITCKASQDINKYIAWYQHKPGKAPKLLIHYTSTLEPGVPSRFSGSGSGTDFTFSISSLEPEDIATYYCLHYDNLLTFGGGTKLEIKR
notes: as for B2
binding result (rhTSLP-mFc融合蛋白): binds

B17: 人源化单克隆抗体6K3/3H3 (antibody, human IgG1, kappa, V domains shown)
VH: EVQLVESGAEVVKPGALVKVSCKASGFNIKDYYMHWVRQRPGQGLEWIGWIDPENGNTIYDQKFQGRVSITADTSTNTAYLELSSLTSEDTAVYYCAREGDGNYLWFAYWGQGTLVTVSS
VL: DIQMTQSPSSLSASLGDKVTITCKASQDINKYIAWYQHKPGKAPKLLIHYTSTLEPGVPSRFSGSGSGTDFTFSISSLEPEDIATYYCLHYDNLLTFGGGTKLEIKR
notes: as for B2
binding result (rhTSLP-mFc融合蛋白): binds

B18: 鼠源TSLP单克隆抗体7A9E3G10E5(6K/3H) (antibody, mouse IgG1, kappa)
heavy: EVKLVETGAELVRPGALVKLSCKTSGFNIKDYYMHWVKQRPEQGLEWIGWIDPENGNTIYDPKFQGKASITADTSSNTAYLHLSSLTSEDTAVYYCAREGDGNYLWFAYWGQGTLVTVSAAKTTPPSVYPLAPGSAAQTNSMVTLGCLVKGYFPEPVTVTWNSGSLSSGVHTFPAVLESDLYTLSSSVTVPSSPRPSETVTCNVAHPASSTKVDKKIVPRDCGCKPCICTVPEVSSVFIFPPKPKDVLTITLTPKVTCVVVDISKDDPEVQFSWFVDDVEVHTAQTQPREEQFNSTFRSVSELPIMHQDWLNGKEFKCRVNSAAFPAPIEKTISKTKGRPKAPQVYTIPPPKEQMAKDKVSLTCMITDFFPEDITVEWQWNGQPAENYKNTQPIMNTNGSYFVYSKLNVQKSNWEAGNTFTCSVLHEGLHNHHTEKSLSHSPGK
light: DILLTQSPSSLSASLGGKVIITCKASQDINKYIAWYQHKPGKGLRLLIHYTSTLEPGIPSRFSGSGSGRDYSFSISNLEPEDIATYYCLHYDNLLTFGDGTKLELKRADAAPTVSIFPPSSEQLTSGGASVVCFLNNFYPKDINVKWKIDGSERQNGVLNSWTDQDSKDSTYSMSSTLTLTKDEYERHNSYTCEATHKTSTSPIVKSFNRNEC
notes: also called 鼠源单克隆抗体6K/3H
Kd (人TSLP): 20.1 nM
koff (人TSLP): 0.00506 s⁻¹
kon (人TSLP): 252000 M⁻¹ s⁻¹
IC50 (rhTSLP-hFc [2]): 0.428 µg/mL

— CN111196850A (BEIJING HUIZHI HEYUAN BIOTECHNOLOGY CO LTD, dated 2020)
